Results taken from article PMC5145805, “Structural Basis for Selective Interaction between the ESCRT Regulator HD-PTP and UBAP1” (Structure(London, England:1993), 2016).
Numbering of substitutions follows the chain as printed. In names and notes the source's numbering stands. Entries after “also recorded” stand apart in the source; their conditions may differ.

Legend:
[1] = tested on: FKBP-HD-PTPBro1-CC in HeLa cells; test: Mitochondrial targeting (FKBP-HD-PTPBro1-CC / Mito-FRB relocalization, immunofluorescence); type: cell-based; details: rapamycin 1 μM, 3 hr; for relocation to mitochondria with HD-PTPBro1-CC: HeLa
Experimental: Mitochondrial targeting experiments were performed as previously described ([Sato et al., 2015]). HeLa cells were transiently transfected with HD-PTPBro1-CC containing an N-terminal FKBP sequence and a C-terminal myc tag (cloned into pcDNA5), Mito-FRB (a gift from Martin Lowe, Manchester, UK), and either GFP, WT UBAP1-GFP, or F268S UBAP1-GFP (in pEGFP). Mitochondrial relocation of FKBP-HD-PTPBro1-CC-myc was induced by addition of 1 μM rapamycin (Sigma) for 3 hr. Cells were then prepared for immunofluorescence microscopy as above. Mitochondrial relocation of GFP-tagged constructs was scored in three independent experiments (100 cells counted per experiment).

HD-PTPBro1-CC = molecular target: T1, HD-PTPBro1-CC (Homo sapiens, UniProt Q9H3S7); test: Yeast two-hybrid interaction with HD-PTPBro1-CC; type: binding; details: Matchmaker Gold, each triplicate experiment repeated at least three times
T1 construct: HD-PTPBro1-CC (1–714) was cloned into a pET28a vector with restriction sites Nde1 and Xho1; made in house; host or cells: Escherichia coli BL21(DE3)
T1 sequence (Q9H3S7 1-714): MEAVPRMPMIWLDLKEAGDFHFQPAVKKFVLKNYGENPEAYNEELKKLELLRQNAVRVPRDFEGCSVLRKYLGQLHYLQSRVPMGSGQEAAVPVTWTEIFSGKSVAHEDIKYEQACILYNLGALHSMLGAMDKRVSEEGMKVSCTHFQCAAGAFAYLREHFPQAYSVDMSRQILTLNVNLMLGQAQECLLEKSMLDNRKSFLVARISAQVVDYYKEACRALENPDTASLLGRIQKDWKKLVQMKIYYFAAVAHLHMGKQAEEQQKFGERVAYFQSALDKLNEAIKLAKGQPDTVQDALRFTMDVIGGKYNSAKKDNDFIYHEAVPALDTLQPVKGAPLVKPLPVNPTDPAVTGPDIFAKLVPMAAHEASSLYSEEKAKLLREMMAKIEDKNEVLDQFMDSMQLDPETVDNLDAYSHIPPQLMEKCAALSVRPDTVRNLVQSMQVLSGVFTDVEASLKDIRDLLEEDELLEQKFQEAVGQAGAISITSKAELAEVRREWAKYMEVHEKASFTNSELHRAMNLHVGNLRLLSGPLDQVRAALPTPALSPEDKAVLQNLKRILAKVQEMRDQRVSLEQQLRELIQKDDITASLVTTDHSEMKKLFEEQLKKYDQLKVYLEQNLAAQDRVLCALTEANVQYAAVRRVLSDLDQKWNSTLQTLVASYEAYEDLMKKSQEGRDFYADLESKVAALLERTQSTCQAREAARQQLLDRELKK
Experimental: HD-PTPBro1-CC, HD-PTPBro1-CC F678D, and AlixBro1-V cloned into pGBKT7 were used as described previously ([Stefani et al., 2011]). UBAP1 (122–308) was cloned into pGADT7. Further deletion and missense mutations in UBAP1 as indicated were generated by standard PCR-based mutagenesis. Interactions were tested using the Matchmaker Gold system (Clontech) as described previously ([Stefani et al., 2011]) Each triplicate experiment was repeated at least three times.

[2] = molecular target: T2, HD-PTPCC (coiled-coil domain of HD-PTP, residues 363-712) (UniProt Q9H3S7 363-712); test: SPR; ProteOn XPR36; HD-PTP constructs (50-100 ug/mL) immobilised on an HTE chip, peptides injected (50 uL at 100 uL/min); 25 C; 10 mM HEPES pH 7.4, 150 mM NaCl, 0.05% Tween 20; equilibrium binding model; details: both partners purified
T2 construct: HD-PTP (His domain protein tyrosine phosphatase; PTPN23), coiled-coil domain, residues 363-712; Form used in the biosensor (SPR) and NMR experiments; immobilisation was on an HTE chip, which probably captures the His tag (surmise); also called CC domain of HD-PTP; WT HD-PTPCC; source: E. coli BL21(DE3), purified (nickel beads, Mono Q anion exchange, Superdex200)
T2 sequence (looked up): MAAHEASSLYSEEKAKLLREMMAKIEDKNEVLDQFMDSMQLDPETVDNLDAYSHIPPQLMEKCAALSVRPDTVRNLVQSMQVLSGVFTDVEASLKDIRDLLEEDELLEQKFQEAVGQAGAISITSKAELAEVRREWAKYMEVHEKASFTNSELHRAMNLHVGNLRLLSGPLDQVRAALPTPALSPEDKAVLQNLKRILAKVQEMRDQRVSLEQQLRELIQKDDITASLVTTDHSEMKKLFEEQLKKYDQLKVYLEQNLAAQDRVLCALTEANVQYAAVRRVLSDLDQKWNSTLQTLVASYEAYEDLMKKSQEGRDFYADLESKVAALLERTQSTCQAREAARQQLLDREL

[3] = molecular target: T3, HD-PTP_(Bro1-CC) (residues 1-714), His6-tagged (UniProt Q9H3S7 1-714); test: as above; details: both partners purified
T3 construct: HD-PTP (PTPN23), Bro1 and coiled-coil domains, residues 1-714; Precipitated by an anti-His antibody in the co-immunoprecipitation; immobilised on an HTE chip in SPR; also called His6-HD-PTP_(Bro1-CC); source: E. coli BL21(DE3), purified (nickel beads, Mono Q anion exchange, Superdex200)
T3 sequence (looked up): T1 sequence (Q9H3S7 1-714)

CC domain of HD-PTP = details: ref Stefani et al., 2011; cited from earlier work
Source text: Specific interaction with UBAP1 is central to the function of HD-PTP ([Stefani et al., 2011]), and their cooperation is essential to regulate integrin signaling and cell migration ([Kharitidi et al., 2015]). Therefore, we aimed to define this interaction at the molecular level. We previously identified the central region of UBAP1 (122–309) as binding to the CC domain of HD-PTP in a yeast two-hybrid (Y2H) screen ([Stefani et al., 2011]). […] In ad ...

## CO[C@H]1C[C@@H]2CC[C@@H](C)[C@@](O)(O2)C(=O)C(=O)N2CCCC[C@H]2C(=O)O[C@H]([C@H](C)C[C@@H]2CC[C@@H](O)[C@H](OC)C2)CC(=O)[C@H](C)/C=C(\C)[C@@H](O)[C@@H](OC)C(=O)[C@H](C)C[C@H](C)/C=C/C=C/C=C/1C [rapamycin, reference compound]
[1]; FKBP-HD-PTPBro1-CC with mito-FRB
  relocalization of HD-PTPBro1-CC to mitochondria: efficient relocalization

## residues 260–269: minimal region of UBAP1 for effective binding to HD-PTP (VSNIKSLSFP; UniProt Q9NZ09 260-269, looked up, fragment)
HD-PTPBro1-CC
  Y2H binding to HD-PTP: minimal region for effective binding

B1: UBAP1C (UBAP1 peptide containing residues 261-280) (peptide, UniProt Q9NZ09 261-280, looked up)
peptide: SNIKSLSFPKLDSDDSNQKT
notes: also called UBAP1C peptide
[2]
  Kd: 66.3 ± 0.35 µM
[3]
  Kd: 31.9 ± 0.85 µM

B2: UBAP1 (122–309): central region of UBAP1 (122–309) (protein)
chain: ASLQHNSILTPTRVSSSATKQKVLSPPHIKADFNLADFECEEDPFDNLELKTIDEKEELRNILVGTTGPIMAQLLDNNLPRGGSGSVLQDEEVLASLERATLDFKPLHKPNGFITLPQLGNCEKMSLSSKVSLPPIPAVSNIKSLSFPKLDSDDSNQKTAKLASTFHSTSCLRNGTFQNSLKPSTQS
modifications: left off: Gal4 activation domain (from the vector pGADT7), end not stated, kept
CC domain of HD-PTP
  Y2H binding to CC domain of HD-PTP: binding

B3: UBAP1-GFP: UBAP1 GFP fusion, wild-type (protein)
chain: MASKKLGADFHGTFSYLDDVPFKTGDKFKTPAKVGLPIGFSLPDCLQVVREVQYDFSLEKKTIEWAEEIKKIEEAEREAECKIAEAEAKVNSKSGPEGDSKMSFSKTHSTATMPPPINPILASLQHNSILTPTRVSSSATKQKVLSPPHIKADFNLADFECEEDPFDNLELKTIDEKEELRNILVGTTGPIMAQLLDNNLPRGGSGSVLQDEEVLASLERATLDFKPLHKPNGFITLPQLGNCEKMSLSSKVSLPPIPAVSNIKSLSFPKLDSDDSNQKTAKLASTFHSTSCLRNGTFQNSLKPSTQSSASELNGHHTLGLSALNLDSGTEMPALTSSQMPSLSVLSVCTEESSPPNTGPTVTPPNFSVSQVPNMPSCPQAYSELQMLSPSERQCVETVVNMGYSYECVLRAMKKKGENIEQILDYLFAHGQLCEKGFDPLLVEEALEMHQCSEEKMMEFLQLMSKFKEMGFELKDIKEVLLLHNNDQDNALEDLMARAGAS
modifications: left off: GFP, end not stated, kept
notes: UBAP1 GFP fusion, wild-type
[1]
  relocation to mitochondria with HD-PTPBro1-CC: relocated to mitochondria; also recorded: translocates to mitochondria

B4: UBAP1-GFP F268S: UBAP1-GFP with F268S mutation (protein)
chain: B3 chain with F268S
modifications: left off: GFP, end not stated, kept
notes: UBAP1-GFP with F268S mutation
[1]
  relocation to mitochondria with HD-PTPBro1-CC: not

B5: F268S: F268S mutation in the FPXL motif of UBAP1, Y2H fragment (protein, UniProt Q9NZ09 1-502, looked up, variant F268S)
Ubiquitin-associated protein 1: B3 chain with F268S
HD-PTPBro1-CC
  Y2H binding to HD-PTP: abolished binding

B6: P269A: P269A mutation in UBAP1, Y2H fragment (protein, UniProt Q9NZ09 1-502, looked up, variant P269A)
Ubiquitin-associated protein 1: B3 chain with P269A
HD-PTPBro1-CC
  Y2H binding to HD-PTP: no obvious effect on binding; also recorded: weaker phenotype

B7: L271A: L271A mutation in UBAP1, Y2H fragment (protein, UniProt Q9NZ09 1-502, looked up, variant L271A)
Ubiquitin-associated protein 1: B3 chain with L271A
HD-PTPBro1-CC
  Y2H binding to HD-PTP: no obvious effect on binding; also recorded: weaker phenotype
